Results reported in US20160264649A1.

How the values were obtained:
Assay in all cases: cell-based or functional assay
[1] = biological target: HIV-1 APV_17 Env on pseudovirus (HIV-1)
[2] = biological target: HIV-1 MGRM-C-019 Env on pseudovirus (HIV-1)
[3] = biological target: HIV-1 MGRM-AG-001 Env (HIV-1)
[4] = biological target: HIV-1 MGRM-C-006 Env on pseudovirus (HIV-1)
[5] = biological target: HIV-1 MGRM-Chronic-B-024 Env on pseudovirus (HIV-1)
[6] = biological target: HIV-1 MGRM-D-018 Env (HIV-1)
[7] = biological target: HIV-1 MGRM-D-019 Env (HIV-1)
[8] = biological target: HIV-1 MGRM-C-002 Env on pseudovirus (HIV-1)
[9] = biological target: HIV-1 PVO.4 (Acute) Env on pseudovirus (HIV-1)
[10] = biological target: HIV-1 97ZA012 Env on pseudovirus (HIV-1)
[11] = biological target: HIV-1 MGRM-G-027 Env (HIV-1)
[12] = biological target: HIV-1 MGRM-Chronic-B-017 Env on pseudovirus (HIV-1)
[13] = biological target: HIV-1 94UG114 Env (HIV-1)
[14] = biological target: HIV-1 MGRM-C-010 Env on pseudovirus (HIV-1)
[15] = biological target: HIV-1 MGRM-Chronic-B-004 Env on pseudovirus (HIV-1)
[16] = biological target: HIV-1 MGRM-D-029 Env (HIV-1)
[17] = biological target: HIV-1 MGRM-F1-017 Env (HIV-1)
[18] = biological target: HIV-1 LAVI_C3 Env on pseudovirus (HIV-1)
[19] = biological target: HIV-1 MGRM-D-008 Env (HIV-1)
[20] = biological target: HIV-1 MGRM-F1-006 Env (HIV-1)
[21] = biological target: HIV-1 MGRM-Chronic-B-010 Env on pseudovirus (HIV-1)
[22] = biological target: HIV-1 MGRM-D-001 Env (HIV-1)
[23] = biological target: HIV-1 92BR020 Env (HIV-1)
[24] = biological target: HIV-1 JRCSF Env on pseudovirus (HIV-1) (UniProt P20871)
[25] = biological target: HIV-1 MGRM-F1-018 Env (HIV-1)
[26] = biological target: HIV-1 MGRM-AE-001 Env (HIV-1)
[27] = biological target: HIV-1 MGRM-D-022 Env (HIV-1)
[28] = biological target: HIV-1 MGRM-G-011 Env (HIV-1)
[29] = biological target: HIV-1 MGRM-C-017 Env on pseudovirus (HIV-1)
[30] = biological target: HIV-1 TRJ0.58 (Acute) Env on pseudovirus (HIV-1)
[31] = biological target: HIV-1 MGRM-F1-012 Env (HIV-1)
[32] = biological target: HIV-1 MGRM-AG-013 Env (HIV-1)
[33] = biological target: HIV-1 MGRM-C-005 Env on pseudovirus (HIV-1)
[34] = biological target: HIV-1 LAVI_C22 Env on pseudovirus (HIV-1)
[35] = biological target: HIV-1 MGRM-Chronic-B-002 Env on pseudovirus (HIV-1)
[36] = biological target: HIV-1 MGRM-AG-002 Env (HIV-1)
HIV-1 APV-6 Env (HIV-1) = biological target: HIV-1 APV-6 Env (HIV-1)
[37] = biological target: HIV-1 QH0692.42 (Acute) Env on pseudovirus (HIV-1)
[38] = biological target: HIV-1 MGRM-AE-005 Env (HIV-1)
[39] = biological target: HIV-1 MGRM-Chronic-B-018 Env on pseudovirus (HIV-1)
[40] = biological target: HIV-1 CAAN.A2 (Acute) Env on pseudovirus (HIV-1)
[41] = biological target: HIV-1 MGRM-F1-014 Env (HIV-1)
[42] = biological target: HIV-1 MGRM-C-015 Env on pseudovirus (HIV-1)
[43] = biological target: HIV-1 MGRM-AE-004 Env (HIV-1)
[44] = biological target: HIV-1 MGRM-Chronic-B-001 Env on pseudovirus (HIV-1)
[45] = biological target: HIV-1 92UG005 Env (HIV-1)
[46] = biological target: HIV-1 MGRM-D-005 Env (HIV-1)
[47] = biological target: HIV-1 92UG001 Env (HIV-1)
[48] = biological target: HIV-1 MGRM-AE-002 Env (HIV-1)
[49] = biological target: HIV-1 MGRM-AG-006 Env (HIV-1)
[50] = biological target: HIV-1 MGRM-Chronic-B-023 Env on pseudovirus (HIV-1)

Sequence of 1443_C16 (PG16) (TCN-116) (antibody) (VH): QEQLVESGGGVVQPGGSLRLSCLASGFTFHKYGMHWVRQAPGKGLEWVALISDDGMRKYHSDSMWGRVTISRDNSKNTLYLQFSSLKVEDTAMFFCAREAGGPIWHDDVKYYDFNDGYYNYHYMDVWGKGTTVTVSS
Sequence of 1443_C16 (PG16) (TCN-116) (antibody) (VL): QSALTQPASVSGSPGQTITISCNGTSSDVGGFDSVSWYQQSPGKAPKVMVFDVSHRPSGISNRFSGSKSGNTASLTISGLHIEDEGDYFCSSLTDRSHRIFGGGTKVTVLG

1443_C16 (PG16) (TCN-116) (antibody)
IC50 [1]: 24.8 µg/mL
IC50 [2]: 0.002 µg/mL
IC50 (µg/ml), pseudovirus neutralization [3]: 0.03 µg/mL
IC50 [4]: 2.62 µg/mL
IC50 [5]: 0.01 µg/mL
IC50 (µg/ml), pseudovirus neutralization [6]: 0.004 µg/mL
IC50 (µg/ml), pseudovirus neutralization [7]: 0.01 µg/mL
IC50 [8]: 28.3 µg/mL
IC50 [9]: 5.43 µg/mL
IC50 [10]: 2.55 µg/mL
IC50 (µg/ml), pseudovirus neutralization [11]: 0.01 µg/mL
IC50 [12]: 0.02 µg/mL
IC50 (µg/ml), pseudovirus neutralization [13]: > 50 µg/mL
IC50 [14]: > 50 µg/mL
IC50 [15]: 0.01 µg/mL
IC50 (µg/ml), pseudovirus neutralization [16]: > 50 µg/mL
IC50 (pseudovirus neutralization) [17]: > 50 µg/mL
IC50 [18]: 9.55 µg/mL
IC50 (µg/ml), pseudovirus neutralization [19]: > 50 µg/mL
IC50 (pseudovirus neutralization) [20]: 0.27 µg/mL
IC50 [21]: 0.01 µg/mL
IC50 (µg/ml), pseudovirus neutralization [22]: > 50 µg/mL
neutralization IC50 [23]: > 50 µg/mL
neutralization IC90 [23]: > 50 µg/mL
IC50 [24]: 0.001 µg/mL
IC50 (pseudovirus neutralization) [25]: 0.01 µg/mL
IC50 (µg/ml), pseudovirus neutralization [26]: 4.33 µg/mL
IC50 (µg/ml), pseudovirus neutralization [27]: > 50 µg/mL
IC50 (µg/ml), pseudovirus neutralization [28]: 0.04 µg/mL
IC50 [29]: 1.8 µg/mL
IC50 [30]: 1.16 µg/mL
IC50 (pseudovirus neutralization) [31]: 0.003 µg/mL
IC50 (µg/ml), pseudovirus neutralization [32]: 0.31 µg/mL
IC50 [33]: 2.55 µg/mL
IC50 [34]: 0.02 µg/mL
IC50 [35]: 3.06 µg/mL
IC50 (µg/ml), pseudovirus neutralization [36]: 0.03 µg/mL
neutralization IC50 (HIV-1 APV-6 Env (HIV-1)): 0.08 µg/mL
neutralization IC90 (HIV-1 APV-6 Env (HIV-1)): 44.3 µg/mL
IC50 [37]: > 50 µg/mL
IC50 (µg/ml), pseudovirus neutralization [38]: 0.02 µg/mL
IC50 [39]: 0.7 µg/mL
IC50 [40]: 8.83 µg/mL
IC50 (pseudovirus neutralization) [41]: 0.01 µg/mL
IC50 [42]: 0.26 µg/mL
IC50 (µg/ml), pseudovirus neutralization [43]: 0.002 µg/mL
IC50 [44]: > 50 µg/mL
IC50 (µg/ml), pseudovirus neutralization [45]: > 50 µg/mL
neutralization IC50 [45]: > 50 µg/mL
neutralization IC90 [45]: > 50 µg/mL
IC50 (µg/ml), pseudovirus neutralization [46]: 19.7 µg/mL
IC50 (µg/ml), pseudovirus neutralization [47]: > 50 µg/mL
IC50 (µg/ml), pseudovirus neutralization [48]: 0.01 µg/mL
IC50 (µg/ml), pseudovirus neutralization [49]: > 50 µg/mL
IC50 [50]: 0.13 µg/mL
